Experimental data as given in patent US20020102215A1.

Target: thiolated anti-CD34 antibody conjugated to gas-filled microbubbles encapsulated with DSPS and comprising DSPE-PEG2000-MAL
Test: flow cytometry of anti-CD34-conjugated microbubbles after incubation with the FITC-labelled secondary antibody and washing

Substance: FITC-conjugated goat-anti-mouse antibody
- % of microbubble population fluorescent: 98%
